Data on 14 sequences can be found in the DeepSol protein solubility set.

The series is described as follows: soluble on expression in E. coli; label from the status in PepcDB or PDB records.
Regarding “MSLTNHHPSSTGPQHPYRAGWIHFTNVAPILDSLELPPGVTAITGVPTQMNAALLSGEVDIANVSAVEFIRHADTLAALPDFSVAVLGPVYSVNLFHTCPLPELRRVALTSQSAMSVALLEVLLRQKGLSPVLERAEGTAESLLAAGYDGVLRIGDDALREWYGVVGPLTPERTMTSLPHTGRGITVTDLAQEWFDLTGHPFTFAVWAYRKDNPPPAALLQAMREARRRGIGHLAEVSQRHAEKLGLPERVVQHYLWNFRYHLEAPDRLGLREFADLAVPGHAELTFGAREEAEGHHHHHH”, the “soluble on expression in E. coli” value is recorded as “soluble”. As to “MSLKNELEFAKKLIDFIYDSPSPFHSVDNIKNTLIENGFAEIKEENKWELNKNGKYFVKRNDSALIAFTVGSGFVAKKGFKIIGGHTDSPTFRIKPNPEMVSENSYIKLNTEVYGGPILSTWFDRPLSIAGRVTVRGKSALFPETKLLNIKRPILVIPNLAIHMNRDVNSGFKINPQVDTLPIIGIINDKFEKENYLMKIIASELGEDIENIIDFDLFLYEYDKGCIMGINNEFISSSRLDDMEMVHAGLNALVNAKCSEATNVLACFDNEEIGSATKQGADSQFLSDILERIVLSFGGDREDFFRALHNSFMISSDSAHAVHPNKGEKADPITRPHINEGPVIKISAAQKYTSDSNSIAVYEEVCRLSGVPYQKFVNRSDERGGSTIGPITATHTAIRTVDIGTPLLAMHSIRELCGTLDHMYVEKSFEEFYNEGHHHHHH”, the “soluble on expression in E. coli” value is listed as “soluble”. The same measure for “MAHHHHHHMFYMFLTRNDHQDRRRESPPPTPKKHGASFLRRIHLGEFSGRTICISWETLVEKHEWRDCAKETLLALSSNMIVYLMCHISNANEKGKVLSMVKDIPQLARHNILFCETEKGYEAFSRQIKPAILVTHDSAQAEFLSLVLPNVVLVGSSATGSAMTSISSLSELLF”: “not soluble”; for “MGSDKIHHHHHHMNIERADFVDRVKIFVKAGDGGNGCVSFRREKYVPKGGPDGGDGGNGGFVFLRANPSVSTLIEFVNKRKFMAENGKHGMGKKMKGRNGKDLFIDVPVGTVVKDAVTGEVIADLNEPGKIVCVARGGRGGRGNAHFATSIKQAPLIAERGEKGESRWLELELKILADVGLVGYPNVGKSSLISRISNARPKIANYPFTTLIPNLGVVKYDDFSFVVADIPGLIEGASEGVGLGNVFLRHVERCYLIAHVIDVSGYEREDPVRDYFVIREEMKKYSPFLLEKPEIVVANKIDLIGKEELEKILKRLRDATNREVIPVSAVTGEGIDLLVSKLASIVREMKVEKPERKEEKFVKPSPVWRRLPEKFHLEVVKEDEGYWVVEGENLRVWIERFDLNQRDARLMLLQVLEKNGLNNKLKEAGVKEGDVVRIGDFEFEYRE”: “not soluble”; for “MIWIINISWMHSIFDFISMLINRNHFSKWSISNGRHVSFCNWVFTYTNICSKSFNYRRRSCFKNISISYPFCRIHSIFNKFFTYFIISNCSCPTHRLFCIWRSLFTRSLEHHHHHH”: “not soluble”. Consider “MSVGKPLPHDSARAHVTGQARYLDDLPCPANTLHLAFGLSTEASAAITGLDLEPVRESPGVIAVFTAADLPHDNDASPAPSPEPVLATGEVHFVGQPIFLVAATSHRAARIAARKARITYAPRPAILTLDQALAADSRFEGGPVIWARGDVETALAGAAHLAEGCFEIGGQEHFYLEGQAALALPAEGGVVIHCSSQHPSEIQHKVAHALGLAFHDVRVEMRRMGGGFGGKESQGNHLAIACAVAARATGRPCKMRYDRDDDMVITGKRHDFRIRYRIGADASGKLLGADFVHLARCGWSADLSLPVCDRAMLHADGSYFVPALRIESHRLRTNTQSNTAFRGFGGPQGALGMERAIEHLARGMGRDPAELRALNFYDPPERGGLSAPPSPPEPIATKKTQTTHYGQEVADCVLGELVTRLQKSANFTTRRAEIAAWNSTNRTLARGIALSPVKFGISFTLTHLNQAGALVQIYTDGSVALNHGGTEMGQGLHAKMVQVAAAVLGIDPVQVRITATDTSKVPNTSATAASSGADMNGMAVKDACETLRGRLAGFVAAREGCAARDVIFDAGQVQASGKSWRFAEIVAAAYMARISLSATGFYATPKLSWDRLRGQGRPFLYFAYGAAITEVVIDRLTGENRILRTDILHDAGASLNPALDIGQIEGAYVQGAGWLTTEELVWDHCGRLMTHAPSTYKIPAFSDRPRIFNVALWDQPNREETIFRSKAVGEPPFLLGISAFLALHDACAACGPHWPDLQAPATPEAVLAAVRRAEGRA”, for which the “soluble on expression in E. coli” value is “soluble”. With “MISDIRKDAEVRMDKCVEAFKTQISKIRTGRASPSLLDGIVVEYYGTPTPLRQLASVTVEDSRTLKINVFDRSMSPAVEKAIMASDLGLNPNSAGSDIRVPLPPLTEERRKDLTKIVRGEAEQARVAVRNVRRDANDKVKALLKDKEISEDDDRRSQDDVQKLTDAAIKKIEAALADKEAELMQF”, the “soluble on expression in E. coli” value is “soluble”. Under “MSALEETQSLCKQVDDICNNGMESVEQCNKLLDQLSKIPMSIEIIQKTNIGIKVNMMRKKVTDDAVAKRAKNIIKDWKNVVDGKSKSQDDGGAPPAKKHRKESVEEAKPEKKKIEAPYKRPEPSSRPEIVAQFASASFPPKHLENDETRLKSAQLLLSALRFGDMPQGTLDPEELAVQIEEKLYSVHRDTNKSYSAAVRSRIFNLRDKKNLALRENVLTGVVRAEKFATMTSEEMASAEIREMRDKFTKEAILEHQMSVQQGTPSDMFKCGKCGKKNCTYTQLQTRSSDEPMTTFVFCLECGNRWKFC” stands “soluble”; under “MGSDKIHHHHHHMKIAVTGKGGVGKSTIVGMLARALSDEGWRVMAIDADPDANLASAIGVPAERLSALLPISKMTGLARERTGASETTGTHFILNPRVDDIPEQFCVDHAGIKLLLMGTVNHAGSGCVCPEHALVRTLLRHILTKRKECVLIDMEAGIEHFGRGTIEAVDLLVIVIEPGSRSLQTAAQIEGLARDLGIKTICHIANKLASPVDVGFILDRADQFDLLGSIPFDSAIQAADQAGLSCYDLSPACRDKAHALMAALLERVGPTQGVS”, “not soluble”. The same measure for “MAFFESDIVQDEAKRLFGDYQQLMQLGSEYGKFDREGKKKFIETMEELMGRYRVFMKRFELSEDFQAKLTVEQLRTQLSQFGITPEQMFEQMNATLERMKAQIELPPSS”: “not soluble”; for “MGSDKIHHHHHHMPSVKIGIIGAGSAVFSLRLVSDLCKTPGLSGSTVTLMDIDEERLDAILTIAKKYVEEVGADLKFEKTMNLDDVIIDADFVINTAMVGGHTYLEKVRQIGEKYGYYRGIDAQEFNMVSDYYTFSNYNQLKYFVDIARKIEKLSPKAWYLQAANPIFEGTTLVTRTVPIKAVGFCHGHYGVMEIVEKLGLEEEKVDWQVAGVNHGIWLNRFRYNGGNAYPLLDKWIEEKSKDWKPENPFNDQLSPAAIDMYRFYGVMPIGDTVRNSSWRYHRDLETKKKWYGEPWGGADSEIGWKWYQDTLGKVTEITKKVAKFIKENPSVRLSDLGSVLGKDLSEKQFVLEVEKILDPERKSGEQHIPFIDALLNDNKARFVVNIPNKGIIHGIDDDVVVEVPALVDKNGIHPEKIEPPLPDRVVKYYLRPRIMRMEMALEAFLTGDIRIIKELLYRDPRTKSDEQVEKVIEEILALPENEEMRKHYLKR”: “not soluble”; for “MSLRVTDFSFELPESLIAHYPMPERSSCRLLSLDGPTGALTHGTFTDLLDKLNPGDLLVFNNTRVIPARLFGRKASGGKIEVLVERMLDDKRILAHIRASKAPKPGAELLLGDDESINATMTARHGALFEVEFNDERSVLDILNSIGHMPLPPYIDRPDEDADRELYQTVYSEKPGAVAAPTAGLHFDEPLLEKLRAKGVEMAFVTLHVGAGTFQPVRVDTIEDHIMHSEYAEVPQDVVDAVLAAKARGNRVIAVGTTSVRSLESAAQAAKNDLIEPFFDDTQIFIYPGFQYKVVDALVTNFHLPESTLIMLVSAFAGYQHTMNAYKAAVEEKYRFFSYGDAMFITYNPQAINERVGEEGGSHHHHHH”: “soluble”. Under “MDIKAMGYVVIPRLPFKEFRDEKIYDHLFKRAEYRPNQELELGQTIIKVVELAKDFNWSAAQIKYSLDRMEKQGYIKLHRLPQKRGLIVTILHYADYIQLGNYMKNKALEPAQIEHQEVDDKMKNAFELYENKVARSVGPMEAQRIGYMVDDYGEEKVMEAIKTAFQLKGKAASLSYVQAILSNPFTQKRKEKQYGYKQSSQYRHRISNDHAGTSGKVSPLFGNKTGRIRRKG” stands “not soluble”; under “MYAKANNRTVLSFSEQQIIDCGNFTSPCQENILSHEFIKKNGVVTEADYPYVGKENEKCKYDENKIKLWPTNMLLVGNLPETLLKLFIKEHGPGYFRMKAPPSFFNYKTGIYSPTQEECGKATDARSLTIVGYGIEGGQNYWIVKGSFGT”, “not soluble”.
